In the DeepSol protein solubility set:

Experiment: soluble on expression in E. coli; label from the status in PepcDB or PDB records

| Sequence | soluble on expression in E. coli |
| --- | --- |
| MPLLDLLRPVSDEELRVLSERNPGWQFERLADGRLIVSPTGGESGRIRAAVLGPLYRWNEARGLGVVFDASTGFKLPDGSVLAPDAAFLLGKRWQALSQEAREGFPPLAPDAVFEVRSRSQGLEELREKAAWYLANGVRLVVLLDPYLHRVEVFRPGGVEGHQGPERVPLDPGLPGFALETRGLFLP | soluble |
| MPLSPILRQILQQLAAQLQFRPDMDVKTVREQFEKSSLILVKMANEPIHRVEDITIPGRGGPIRARVYRPRDGERLPAVVYYHGGGFVLGSVETHDHVCRRLANLSGAVVVSVDYRLAPEHKFPAAVEDAYDAAKWVADNYDKLGVDNGKIAVAGDSAGGNLAAVTAIMARDRGESFVKYQVLIYPAVNLTGSPTVSRVEYSGPEYVILTADLMAWFGRQYFSKPQDALSPYASPIFADLSNLPPALVITAEYDPLRDEGELYAHLLKTRGVRAVAVRYNGVIHGFVNFYPILEEGREAVSQIAASIKSMAVA | soluble |
| MPLVGQNVFKSSVTEYDAQTPVVYTVYNEVHQDLLNNTVFLKALADAIDSEIQAAREGKASLLANLQSIRLALQSGSANFGGPAGTTITHNLGTTNFRVSITPTANPDGYLGEIWVVKSSNTMTVFNSGDFRGAFDYQIFKN | not soluble |
| MPMPNLPKELVEEILSFVPATYLKRLSATCKPWNRLIHNDKRFARKHYDNAAKEFLVFMMRKNFRIIRRGVNLHGADPSAEVKGELTLPDPYFKNSADEFHIDRVFHCDGLLLCTSKLERRMVVWNPLTGETKWIQTHEEGDNFFLGYSQEDKNISCKKSYKIMGFYRSGSKVWEYDFNSDSWRVLNGILPNWYFDKSYKCVSLKGNTYMLAGAVTDMGFDLSLQSYDFSTEKFAPVSLPVPSQARSLNGANRLSVVRGEKLALLYRRDKRSKAEIWVTNKIDDTTEGAVSWTKVLELDLSRELHALFTSNFLVDEEKKVFICCVSWKEDEDENKSNKVYIVGEDNIVKEIDSGEDATSGCEPTILSLYVPSLVYM | soluble |
| MPMRLQKSTMCGLYAVLELAANPDRQVSAGDIADKYDISLNHLAKVLRALVRARLIESVRGPGGGYRFAGNPKRVTLLDIIALFEDTGLDLQEAASDDHEESRALHKVLRDIDEIAMTTLRSVSITSLLKVIDTERRKTERGPNGASARHSSAGRA | not soluble |
| MPNPFSKGWKYLTASLDNKIEENADPVIQIKQAAEAAKKQHADIEQQAASVIGNRNQLQMKLNRLLKDQQSIQEKARQALSLSDSATDPAEQHKYLNAAEVYASQLVGVESEIEQTTTLHQQAEQAAEQATQQVKQSEARLHEQLSQINELTTQAQQAKMQEAAVAASDQINSIDPDRDVPTMDSIREKIERRYADALGSQELMQSSMNERIHEIEATTSERDMRANAKLDAIRAQMRGELPAGSEETEPPADK | not soluble |
| MPNSEPASLLELFNSIATQGELVRSLKAGNASKDEIDSAVKMLVSLKMSYKAAAGEDYKADCPPGNPAPTSNHGPDATEAEEDFVDPWTVQTSSAKGIDYDKLIVRFGSSKIDKELINRIERATGQRPHHFLRRGIFFSHRDMNQVLDAYENKKPFYLYTGRGPSSEAMHVGHLIPFIFTKWLQDVFNVPLVIQMTDDEKYLWKDLTLDQAYGDAVENAKDIIACGFDINKTFIFSDLDYMGMSSGFYKNVVKIQKHVTFNQVKGIFGFTDSDCIGKISFPAIQAAPSFSNSFPQIFRDRTDIQCLIPCAIDQDPYFRMTRDVAPRIGYPKPALLHSTFFPALQGAQTKMSASDPNSSIFLTDTAKQIKTKVNKHAFSGGRDTIEEHRQFGGNCDVDVSFMYLTFFLEDDDKLEQIRKDYTSGAMLTGELKKALIEVLQPLIAEHQARRKEVTDEIVKEFMTPRKLAAALEHHHHHH | soluble |
| MPNSSIQIWLQRQIALRTFPPNREDWYVKNGFGNSEMSLEERFASFVEAIRQEDSPYHEQLSGIDFQRFEIEVTLANQKTCMTEVIGFQNNSNQSSSTPNEKFKAVGKGKHVIYFTGIGTQYQDCLIDIAKAVQITGAHYYAFEYPGMRKLGGEVLEVNDMVNTGIALANTLLEKGISIDDILFQGDSFGAAVAKKVSDQFKLQSNVTVRCILNNTFSTFQAAVEGNLGAFSTLRYTVRPLLRYTGWDIRPGEGYGQDTPYQIHVNHTGDLTLGAGHATLAESIESNSQLEHFVDPCPEEYRIKRDIYKQWHWASLSEQGITFLETKYGRNSDGQLDTHLADLYLLKYDTGLGVYESFICKYLEDSNDYIASHPQKLSLDELPRPLESETVSLRQLIVSVLPSRPSIAGFFSRSTPVIEEVETEKQEQKSIELK | soluble |
| MPPANGKKGKKGGAAKAAAPEEDFDAILAEMQLADAKTAAKEATKKDAKGGKGKANGSAAATAAPEEAKQAWQAEIAAMKPIDEQFPDGKFPHGIDESPYYLKGKDGRVATDRESNEEKKALDISYEEVWQDYRRSAEAHRQVRKYVKSWIKPGMTMIEICERLETTSRRLIKEQGLEAGLAFPTGCSLNHCAAHYTPNAGDTTVLQYGDVCKIDYGIHVRGRLIDSAFTVHFDPKFDPLVEAVREATNAGIKESGIDVRLCDVGEIVEEVMTSHEVELDGKSYVVKPIRNLNGHSIAQYRIHAGKTVPIVKGGEQTKMEENEIYAIETFGSTGKGYVHDDMETSHYMKNFELADEKIPLRLQKSKGLLNLIDKNFATLAFCRRWIDRLGETKYLMALKDLCDKGIVDPYPPLCDVKGCYTAQWEHTILMRPTVKEVVSRGDDY | not soluble |
| MPPAVPAAAATARQSASGRERNFKDKDKPESVRNSNIVAAKAVADAVRTSLGPRGMDKMIQSGNGDVTITNDGATILNQMSVIHPTAKMLVELSKAQDIEAGDGTTTVVVMAGALLDAAQNLLSKGIHPTTISESFQSAAAEAEKILDEMSSPVDLSNDALLNKMATTSLNSKVVSQHSWLLAPMAVNAVKKIINSENDSNVNLKMIKIIKKMGDTVEESELIEGALIDQKTMGRGAPTRIEKAKIGLIQFQISPPKTDMENQVIITDYAQMDRALKEERQYLLEICKQIKAAGCNVLLIQKSILRDAVNELALHFLAKMKIMCIKDIEREDIEFYSRILGCRPVASVDHFNADALGYADLVEEIPTGGDGKVIKVTGVQNPGHAVSILLRGSNKLVLEEADRSIHDALCVIRCLVKKKALLPGGGAPEMEIAVKLRNLAQTQHGATQYCWRAFADALELIPYTLAENAGLSPIHTVTELRNNHANGNSSYGVNVRKGYVTDMVEEDVVQPLLVTASAIKQASECVRSILKIDDIVMAVR | not soluble |
| MPPSLRKAVAAAIGGGAIAIASVLITGPSGNDGLEGVSYIPYKDIVGVWTVCHGHTGKDIMLGKTYTKAECKALLNKDLATVARQINPYIKVDIPETTRGALYSFVYNVGAGNFRTSTLLRKINQGDIKGACDQLRRWTYAGGKQWKGLMTRREIEREVCLWGQQ | not soluble |
| MPQFETHRLVKHSPDRMYDLVADVEKYPQFLPLCEALSVRSRKERDGKVLLVADMTVGYKAIRETFTTQVLLNPAERAIDVKYIDGPFRYLDNRWRFEAAENGGTTIHFFIDYEFKNRLLGAVMGSMFDRAFRMFAEAFETRADKIYTDPALEHHHHHH | soluble |
| MPQTDKQVCIPPELPELLKQFTKDAIRTQPPDLIQWAAEYFGAMSRGEIPPVRERSEQIPLSNWAELTPELLKVLHSRVAGRLIIHADELAQMWKVLNLPTDLFNSVMNVGRFTEEIEWLKFLALACSSLGVTIAKTLKIVCEVLSSDHDGGPPRIPFSTFQFLYTYIAEVDGEISSSHVSRMLNYIEQEVIGPDGLIKVNDFTQNPRVRLE | not soluble |
| MPQYKLYYFNLRGWAEPARQLFKLAHVEFEDVRIENGTPEWGALKPKTPFGQLPFLSVDGFEIPQSAAILRYLAKKFGYAGKTSEEEAWVDAIVDQFKDFVTPLRQLIMAQRSGNAEEIERIQKEVFAPARDTFFKILNGILEKSKSGFLVGDGVTWADLVIADILTTMEMLGVFDKHGEEQKLAALREKVNEIPEIKEHNSSRPDSVV | not soluble |
| MPRILFTVPPFPVFIAAGEGVFKKGETHVKRVFSVFDLIYVKQGTLYITENETSFSVEGGEYILLSPGLEHYGTKGSDEATSYYWLHFDEHRYEFTAKGGSNWSELQQEKGSFEELARYGLALPRKGKVQRPQFMAQQFEKLIDYSAENSDLPLRKQILFEELMLHLQKEAFQIPSAKERVAWEAARYLQEHYKEKTTIKDLSLALHYHQDYVSRCMQQVLGVTPAQYTNRVRMTEAKRLLSSTNDKMGVIAETVGMEDPTYFSKLFKQIEGISPIEYRKIVSRKVQ | not soluble |
